Laboratory results reported in PMC2811003 (Nucleic Acids Research, 2009).

Columns and labels:
PriB wild type = molecular target: T1, PriB wild type (Neisseria gonorrhoeae FA1090, UniProt Q5F924 1-100); assay: fluorescence anisotropy
T1 sequence: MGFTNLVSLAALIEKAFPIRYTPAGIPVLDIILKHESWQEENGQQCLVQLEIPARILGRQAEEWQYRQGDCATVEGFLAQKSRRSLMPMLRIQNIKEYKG

crystal structure = molecular target: the molecule itself; assay: crystal structure
[1] = molecular target: T2, His-tagged Neisseria gonorrhoeae PriA (Neisseria gonorrhoeae, UniProt Q5F6V8 1-729); assay: pull-down
T2 sequence (looked up): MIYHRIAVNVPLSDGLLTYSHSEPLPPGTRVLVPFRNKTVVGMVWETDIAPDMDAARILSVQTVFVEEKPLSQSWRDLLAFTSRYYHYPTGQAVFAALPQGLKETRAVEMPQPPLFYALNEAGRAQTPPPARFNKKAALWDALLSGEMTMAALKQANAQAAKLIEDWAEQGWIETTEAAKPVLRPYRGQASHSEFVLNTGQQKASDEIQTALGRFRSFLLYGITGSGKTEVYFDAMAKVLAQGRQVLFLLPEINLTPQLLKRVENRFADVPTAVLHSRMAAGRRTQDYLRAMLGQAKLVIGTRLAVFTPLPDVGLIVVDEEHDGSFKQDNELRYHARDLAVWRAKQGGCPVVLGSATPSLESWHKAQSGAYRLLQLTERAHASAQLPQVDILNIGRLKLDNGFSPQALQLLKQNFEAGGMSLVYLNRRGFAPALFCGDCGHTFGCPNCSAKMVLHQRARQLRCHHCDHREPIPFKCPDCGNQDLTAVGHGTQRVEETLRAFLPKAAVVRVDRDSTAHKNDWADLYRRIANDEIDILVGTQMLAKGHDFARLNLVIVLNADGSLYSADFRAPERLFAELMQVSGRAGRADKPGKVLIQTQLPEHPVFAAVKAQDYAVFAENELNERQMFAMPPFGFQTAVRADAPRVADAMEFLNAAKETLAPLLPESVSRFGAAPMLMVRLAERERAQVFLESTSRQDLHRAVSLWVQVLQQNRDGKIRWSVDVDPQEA

[2] = molecular target: T3, Neisseria gonorrhoeae PriA (Neisseria gonorrhoeae, UniProt Q5F6V8 1-729); assay: fluorescence polarisation
T3 sequence: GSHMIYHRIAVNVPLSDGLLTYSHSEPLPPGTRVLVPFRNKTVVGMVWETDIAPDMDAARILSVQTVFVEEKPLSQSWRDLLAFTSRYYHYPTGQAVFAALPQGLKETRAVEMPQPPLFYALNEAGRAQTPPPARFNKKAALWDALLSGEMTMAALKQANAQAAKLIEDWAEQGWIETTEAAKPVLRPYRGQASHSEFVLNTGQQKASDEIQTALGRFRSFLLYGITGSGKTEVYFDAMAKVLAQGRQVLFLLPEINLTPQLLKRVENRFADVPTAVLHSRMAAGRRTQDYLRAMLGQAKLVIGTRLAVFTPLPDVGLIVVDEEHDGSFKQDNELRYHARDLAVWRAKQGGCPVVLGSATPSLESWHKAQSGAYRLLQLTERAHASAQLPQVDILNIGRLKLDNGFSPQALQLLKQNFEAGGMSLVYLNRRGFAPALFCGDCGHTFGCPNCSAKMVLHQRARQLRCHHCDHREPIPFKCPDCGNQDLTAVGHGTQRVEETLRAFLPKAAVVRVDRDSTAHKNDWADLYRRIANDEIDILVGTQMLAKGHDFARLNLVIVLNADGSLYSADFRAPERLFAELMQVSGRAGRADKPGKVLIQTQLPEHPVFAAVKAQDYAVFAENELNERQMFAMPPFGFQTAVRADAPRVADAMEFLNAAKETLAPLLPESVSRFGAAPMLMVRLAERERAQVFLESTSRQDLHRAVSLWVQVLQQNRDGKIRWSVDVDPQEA

PriB E41A = molecular target: T4, PriB E41A (Neisseria gonorrhoeae FA1090, UniProt Q5F924 1-100, E41A); assay: fluorescence anisotropy
T4 sequence: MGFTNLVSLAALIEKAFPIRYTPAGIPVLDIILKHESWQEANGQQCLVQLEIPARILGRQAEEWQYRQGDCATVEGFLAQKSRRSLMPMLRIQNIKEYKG

PriB Y21A = molecular target: T5, PriB Y21A (Neisseria gonorrhoeae FA1090, UniProt Q5F924 1-100, Y21A); assay: fluorescence anisotropy
T5 sequence: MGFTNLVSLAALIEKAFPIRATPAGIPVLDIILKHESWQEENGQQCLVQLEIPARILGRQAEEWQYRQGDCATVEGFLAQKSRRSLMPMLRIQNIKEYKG

B1: 18-base fluoro-ssDNA (ssDNA)
DNA: AAGCACAATTACCCACGC
Kd (PriB wild type): 662 ± 37 nM

B2: Neisseria gonorrhoeae PriB (natural protein)
chain: GSHMGFTNLVSLAALIEKAFPIRYTPAGIPVLDIILKHESWQEENGQQCLVQLEIPARILGRQAEEWQYRQGDCATVEGFLAQKSRRSLMPMLRIQNIKEYKG
stoichiometry N (crystal structure): 2
binding result [1]: binds

B3: FITC-labeled Neisseria gonorrhoeae PriB (natural protein)
chain: GSHMGFTNLVSLAALIEKAFPIRYTPAGIPVLDIILKHESWQEENGQQCLVQLEIPARILGRQAEEWQYRQGDCATVEGFLAQKSRRSLMPMLRIQNIKEYKG
modifications: FITC (fluorescein isothiocyanate) label, 0.34 FITC per PriB dimer; labeled residue not stated
Kd [2]: 137 nM

B4: 36-base fluoro-ssDNA (ssDNA)
DNA: GCCGTGATCACCAATGCAGATTGACGAACCTTTGCC
Kd (PriB E41A): 139 ± 26 nM
Kd (PriB Y21A): 641 ± 41 nM
Kd (PriB wild type): 475 ± 20 nM

B5: 45-base fluoro-ssDNA (ssDNA)
DNA: GCCGTGATCACCAATGCAGATTGACGAACCTTTGCTCCAGTAACC
Kd (PriB wild type): 1020 ± 34 nM
